This is an account of results in PMC3480987 (Molecular microbiology, 2012).

Data set [1] concerns the molecule itself. The data set is described as follows: BLI.
Data set [2] deals with the molecule itself. The data set is described as follows: BLI. This is another data set of the same source.
Data set [3] deals with the molecule itself. The data set is described as follows: sucrose density gradient centrifugation + SEC.

Residue numbers refer to the chain shown, from its start. Names and notes keep the numbering of the source. Read-outs that look alike come from different tables or passages of the source.

B1: Thioredoxin-UgtP fusion protein (wild type) (enzyme, B. subtilis, UniProt P54166 1-382, looked up)
chain: MNTNKRVLILTANYGNGHVQVAKTLYEQCVRLGFQHVTVSNLYQESNPIVSEVTQYLYLKSFSIGKQFYRLFYYGVDKIYNKRKFNIYFKMGNKRLGELVDEHQPDIIINTFPMIVVPEYRRRTGRVIPTFNVMTDFCLHKIWVHENVDKYYVATDYVKEKLLEIGTHPSNVKITGIPIRPQFEESMPVGPIYKKYNLSPNKKVLLIMAGAHGVLKNVKELCENLVKDDQVQVVVVCGKNTALKESLSALEAENGDKLKVLGYVERIDELFRITDCMITKPGGITLTEATAIGVPVILYKPVPGQEKENANFFEDRGAAIVVNRHEEILESVTSLLADEDTLHRMKKNIKDLHLANSSEVILEDILKESEMMTAKQKAKVLS
modifications: biotin on the copy immobilised on the biosensor (site not stated)
As to B1, the equilibrium dissociation constant (Kd) was 69 nM in the data set “BLI [1]” and 17 nM in the data set “BLI [2]”. In addition, the “stoichiometry N” value in data set [3] was roughly 8.8 monomers.

B2: UgtP (F112A V117A E306A N309A) (enzyme, B. subtilis, UniProt P54166 1-382, looked up)
chain: B1 chain with F112A, V117A, E306A, N309A
modifications: biotin on the copy immobilised on the biosensor (site not stated)
Regarding B2, the Kd in “BLI [1]” was 21 nM; in the data set “BLI [2]”, 16 nM.

For orientation: Kd means the equilibrium constant for the complex coming apart. Lower therefore signals tighter binding. In general, stoichiometry N refers to a count of units in the complex or per binding partner.
